Values of other authors, collected in publication PMC4741949.

Target: EGFR wild-type (human) (UniProt P00533)
Conditions: 2'F-pyrimidines (2'F-C, 2'F-U), RT-qPCR: 15 min 37 C, 100 ug/ml polyinosine, DPBS washes, flow cytometry: DPBS, 30 min, confocal: DMEM without FBS, UV cross-linking buffer not given

GCCUUAGUAACGUGCUUUGAUGUCGAUUCGACAGGAGGC [CL4]
Kd: 10 nM
